# Legend:
# human PD-L1-Fc protein [1] = biological target: T1, human PD-L1-Fc protein (human, UniProt Q9NZQ7 19-238); assay: ELISA, antibody titrated on coated human PD-L1-Fc, OD 450nm; upper left panel
# T1 construct: coating antigen of the ELISAs; also called rhPD-L1-Fc; not shown: Fc
# Procedure: (§1) To evaluate antigen binding activity, the humanized antibodies were subjected to ELISA test. Briefly, microtiter plates were coated with human PD-L1-Fc protein at 0.5 μg/ml in PBS, 100 μl/well at 4° C. overnight, then blocked with 200 μl/well of 1% BSA. Three-fold dilutions of humanized antibodies starting from 10 μg/ml were added to each well and incubated for 1 hour at 37° C. The plates were washed with PBS/Tween and then incubated with mouse-anti-human IgG Fab antibody conjugated with Horse Radish Peroxidase (HRP) for 1 hour at 37° C. After washing, the plates were developed with TMB substrate and analyzed by spectrophotometer at OD 450 nm.
# [2] = biological target: T2, human PD-L1-his tag protein (human, UniProt Q9NZQ7 19-238); assay: SPR (Biacore), affinity ranking, PDL1-His
# T2 construct: also called human PD-L1-His protein; recombinant PD-L1 protein; not shown: his tag
# T2 sequence (Q9NZQ7 19-238 limits assumed): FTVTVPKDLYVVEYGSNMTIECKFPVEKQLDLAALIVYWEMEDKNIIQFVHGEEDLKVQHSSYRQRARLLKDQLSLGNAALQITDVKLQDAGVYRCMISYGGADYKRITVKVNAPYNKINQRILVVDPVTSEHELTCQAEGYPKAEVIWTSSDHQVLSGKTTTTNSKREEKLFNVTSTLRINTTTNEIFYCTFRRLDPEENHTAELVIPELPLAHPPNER
# human PD-L1-Fc protein [3] = biological target: T1, human PD-L1-Fc protein; assay: ELISA, antibody titrated on coated human PD-L1-Fc, OD 450nm; upper right panel
# Procedure: as §1
# T1 sequence (Q9NZQ7 19-238 limits assumed): as above
Binder,EC50 (human PD-L1-Fc protein [1]) [ng/mL],Kd [2] [nM],koff [2] [s⁻¹],kon [2] [M⁻¹ s⁻¹],EC50 (human PD-L1-Fc protein [3]) [ng/mL]
"Hu89C10H8-1 (antibody, V domains shown, humanized) VH: EVQLVESGGGLVKPGGSLRLSCAASGFTFSNYWMTWVRQAPGKGLEWVASITNTGSSTFYPDSVKGRFTISRDNAKNSLYLQMNSLRAEDTAVYYCARDTTIAPFDYWGQGTMVTVSS VL: DIQMTQSPSSLSASVGDRVTITCKASQNLNEYLNWYQQKPGKAPKRLIYKTNTLQAGVPSRFSGSGSGTDYTLTISSLQPEDFATYYCSQYNSGNTFGQGTKLEIK",6.22,0.617,0.000465,754000,–
"Hu89C10H8-6 (antibody, V domains shown, humanized) VH: EVQLVESGGGLVKPGGSLRLSCAASGFTFSNYWMTWVRQAPGKGLEWVASITNTGSSTFYPDSVKGRFTISRDNAKNSLYLQMNSLRAEDTAVYYCTRDTTIAPFDYWGQGTMVTVSS VL: DIQMTQSPSSLSASVGDRVTITCKASQNLNEYLNWYQQKPGKAPKRLIYKTNTLQAGIPSRFSGSGSGTDYTLTISSLQPEDFATYYCSQYNSGNTFGQGTKLEIK",6.51,0.122,8.56e-05,701000,–
"Hu89C10H8-3 (antibody, V domains shown, humanized) VH: EVQLVESGGGLVKPGGSLRLSCAASGFTFSNYWMTWIRQAPGKGLEWVASITNTGSSTFYPDSVKGRFTISRDNAKNSLYLQMNSLRAEDTAVYYCTRDTTIAPFDYWGQGTMVTVSS VL: DIQMTQSPSSLSASVGDRVTITCKASQNLNEYLNWYQQKPGKAPKRLIYKTNTLQAGVPSRFSGSGSGTDYTLTISSLQPEDFATYYCSQYNSGNTFGQGTKLEIK",6.66,0.0785,5.79e-05,738000,–
"Hu89C10H8-10 (antibody, V domains shown, humanized) VH: EVQLVESGGGLVKPGGSLRLSCAASGFTFSNYWMTWVRQAPGKGLEWVASITNTGSSTFYPDSVKGRFTISRDNAKNSLYLQMNSLRAEDTAVYYCTRDTTIAPFDYWGQGTMVTVSS VL: DIQMTQSPSSLSASVGDRVTITCKASQNLNEYLNWYQQKPGKAPKRLIYKTNTLQAGIPSRFSGSGSGIDYTLTISSLQPEDFATYYCSQYNSGNTFGQGTKLEIK",–,0.151,8.99e-05,595000,7.82
"Hu89C10H8-5 (antibody, V domains shown, humanized) VH: EVQLVESGGGLVKPGGSLRLSCAASGFTFSNYWMTWVRQAPGKGLEWVASITNTGSSTFYPDSVKGRFTISRDNAKNSLYLQMNSLRAEDTAVYYCARDTTIAPFDYWGQGTMVTVSS VL: DIQMTQSPSSLSASVGDRVTITCKASQNLNEYLNWYQQKPGKAPKRLIYKTNTLQAGIPSRFSGSGSGTDYTLTISSLQPEDFATYYCSQYNSGNTFGQGTKLEIK",6.37,0.736,0.000494,671000,–
"Hu89C10H8-8 (antibody, V domains shown, humanized) VH: EVQLVESGGGLVKPGGSLRLSCAASGFTFSNYWMTWIRQAPGKGLEWVASITNTGSSTFYPDSVKGRFTISRDNAKSSLYLQMNSLRAEDTAVYYCTRDTTIAPFDYWGQGTMVTVSS VL: DIQMTQSPSSLSASVGDRVTITCKASQNLNEYLNWYQQKPGKAPKRLIYKTNTLQAGIPSRFSGSGSGTDYTLTISSLQPEDFATYYCSQYNSGNTFGQGTKLEIK",–,0.102,6.66e-05,655000,7.41
"Hu89C10H8-2 (antibody, V domains shown, humanized) VH: EVQLVESGGGLVKPGGSLRLSCAASGFTFSNYWMTWVRQAPGKGLEWVASITNTGSSTFYPDSVKGRFTISRDNAKNSLYLQMNSLRAEDTAVYYCTRDTTIAPFDYWGQGTMVTVSS VL: DIQMTQSPSSLSASVGDRVTITCKASQNLNEYLNWYQQKPGKAPKRLIYKTNTLQAGVPSRFSGSGSGTDYTLTISSLQPEDFATYYCSQYNSGNTFGQGTKLEIK",7.28,0.133,8.51e-05,641000,–
"Hu89C10H8-9 (antibody, V domains shown, humanized) VH: EVQLVESGGGLVKPGGSLRLSCAASGFTFSNYWMTWVRQAPGKGLEWVASITNTGSSTFYPDSVKGRFTISRDNAKNSLYLQMNSLRAEDTAVYYCARDTTIAPFDYWGQGTMVTVSS VL: DIQMTQSPSSLSASVGDRVTITCKASQNLNEYLNWYQQKPGKAPKRLIYKTNTLQAGIPSRFSGSGSGIDYTLTISSLQPEDFATYYCSQYNSGNTFGQGTKLEIK",–,0.713,0.000478,671000,8.42
"Hu67F3G7-8 (antibody, V domains shown, humanized) VH: EVQLVQSGAEVKKPGASVKVSCKASGYIFTDFWVSWVRQAPGQGLEWIGEIYPNSGVSRYNEKFKGRVTMTVDKSISTAYMELSRLRSDDTAVYYCTKYFGYTYWFGYWGQGTLVTVSS VL: DTVLTQSPSSLSASVGDRVTITCRASKSVSTYMHWYQQKPGKAPKLLIYSASHLESGVPSRFSGSGSGTDFTLTISSLQPEDFATYYCQQSNELPVTFGGGTKVEIK",–,0.0356,9.84e-05,2.76e+06,12.5
"Hu67F3G7-6 (antibody, V domains shown, humanized) VH: EVQLVQSGAEVKKPGASVKVSCKASGYTFTDFWVSWVRQAPGQGLEWMGEIYPNSGVSRYNEKFKGRVTMTVDKSISTAYMELSRLRSDDTAVYYCARYFGYTYWFGYWGQGTLVTVSS VL: DTVLTQSPSSLSASVGDRVTITCRASKSVSTYMHWYQQKPGKAPKLLIYSASHLESGVPSRFSGSGSGTDFTLTISSLQPEDFATYYCQQSNELPVTFGGGTKVEIK",11.8,0.0587,0.000118,2.01e+06,–
"Hu67F3G7-10 (antibody, V domains shown, humanized) VH: EVQLVQSGAEVKKPGASVKVSCKASGYIFTDFWVSWVRQAPGKGLEWIGEIYPNSGVSRYNEKFKGRVTMTVDKSISTAYMELSRLRSDDTAVYYCTKYFGYTYWFGYWGQGTLVTVSS VL: DTVLTQSPSSLSASVGDRVTITCRASKSVSTYMHWYQQKPGKAPKLLIYSASHLESGVPSRFSGSGSGTDFTLTISSLQPEDFATYYCQQSNELPVTFGGGTKVEIK",–,0.0392,9.34e-05,2.38e+06,10.1
"Hu67F3G7-4 (antibody, V domains shown, humanized) VH: EVQLVQSGAEVKKPGASVKVSCKASGYIFTDFWVSWVRQAPGQGLEWIGEIYPNSGVSRYNEKFKGRVTMTVDKSISTAYMELSRLRSDDTAVYYCARYFGYTYWFGYWGQGTLVTVSS VL: DIQMTQSPSSLSASVGDRVTITCRASKSVSTYMHWYQQKPGKAPKLLIYSASHLESGVPSRFSGSGSGTDFTLTISSLQPEDFATYYCQQSNELPVTFGGGTKVEIK",10.6,0.0548,0.000103,1.88e+06,–
"Hu67F3G7-11 (antibody, V domains shown, humanized) VH: EVQLVQSGAEVKKPGASVKVSCKASGYTFTDFWVSWVRQAPGQGLEWMGEIYPNSGVSRYNEKFKGRVTMTVDKSISTAYMELSRLRSDDTAVYYCARYFGYTYWFGYWGQGTLVTVSS VL: DTVLTQSPSSLSASVGDRVTITCRASKSVSTYMHWYQQKPGKQPKLLIYSASHLESGVPSRFSGSGSGTDFTLTISSLQPEDFATYYCQQSNELPVTFGGGTKVEIK",–,0.0321,0.000164,5.11e+06,8.25
"Hu67F3G7-9 (antibody, V domains shown, humanized) VH: EVQLVQSGAEVKKPGASVKVSCKASGYIFTDFWVSWVRQAPGQGLEWIGEIYPNSGVSRYNEKFKGRVTMTVDKSISTAYMELSRLRSDDTAVYYCARYFGYTYWFGYWGQGTLVTVSS VL: DTVLTQSPSSLSASVGDRVTITCRASKSVSTYMHWYQQKPGKAPKLLIYSASHLESGVPSRFSGSGSGTDFTLTISSLQPEDFATYYCQQSNELPVTFGGGTKVEIK",–,0.0454,0.0001,2.21e+06,8.45
"Hu67F3G7-12 (antibody, V domains shown, humanized) VH: EVQLVQSGAEVKKPGASVKVSCKASGYTFTDFWVSWVRQAPGQGLEWMGEIYPNSGVSRYNEKFKGRVTMTVDKSISTAYMELSRLRSDDTAVYYCTKYFGYTYWFGYWGQGTLVTVSS VL: DTVLTQSPSSLSASVGDRVTITCRASKSVSTYMHWYQQKPGKQPKLLIYSASHLESGVPSRFSGSGSGTDFTLTISSLQPEDFATYYCQQSNELPVTFGGGTKVEIK",–,0.0351,9.01e-05,2.56e+06,9.53
"Hu67F3G7-1 (antibody, V domains shown, humanized) VH: EVQLVQSGAEVKKPGASVKVSCKASGYTFTDFWVSWVRQAPGQGLEWMGEIYPNSGVSRYNEKFKGRVTMTVDKSISTAYMELSRLRSDDTAVYYCARYFGYTYWFGYWGQGTLVTVSS VL: DIQMTQSPSSLSASVGDRVTITCRASKSVSTYMHWYQQKPGKAPKLLIYSASHLESGVPSRFSGSGSGTDFTLTISSLQPEDFATYYCQQSNELPVTFGGGTKVEIK",12.5,0.0655,0.000121,1.86e+06,–

# — US20230287125A1 (LEPU BIOPHARMA, published 2023)
